# The supplement of paper PMC10724198
# ± gives the standard deviation of the averaged measurements.
# Test system: Saccharomyces cerevisiae
# Assay: protein stability index of tFT-peptide fusion (C-terminal peptide) (PSI (0-1 scale)); higher = more stable (slower turnover)
# Conditions: genetic background: wild type; temperature: 30 C
# 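Further: PSI is a weighted mean of sequencing reads over stability bins, variants kept only with over 10 reads, mCherry proximal and sfGFP distal, peptide attached via GGGS linker.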
row,Sequence,protein stability index
1,IRRAGPMVAKGK,0.649 ± 0.086
2,CVVRSGIGFSLL,0.741 ± 0.026
3,STQIRQILERKC,0.653 ± 0.051
4,FVKQSHYCLFHL,0.634 ± 0.011
5,LASSSPPTRPPH,0.702 ± 0.048
6,GVSVGGSSGGSG,0.6868 ± 0.0048
7,VGNSLRCRGGWR,0.628 ± 0.069
8,PLLPATFLPATP,0.74 ± 0.021
9,RQFLSLLPCSLP,0.771 ± 0.094
10,GRVGCGRNRLWS,0.67 ± 0.053
11,PCPPNSPPLSPT,0.71 ± 0.043
12,GLGGSKKGEQRL,0.674 ± 0.012
13,VPSAFLYLVGSL,0.591 ± 0.01
14,AFRCGGVPGDFA,0.664 ± 0.022
15,PPTPHPSTPALP,0.714 ± 0.075
16,VGGLAFSTSSIW,0.809 ± 0.11
17,PRIGEARNLCYK,0.6816 ± 0.006
18,APPPPPDHPFPP,0.691 ± 0.08
19,GPPPAPPPLDAL,0.734 ± 0.053
20,LLSLATPHPSAL,0.714 ± 0.045
21,GVTLKSPTGRVF,0.666 ± 0.097
22,RGGRGAVRWLRG,0.66791 ± 7.1e-07
23,LRSGGVPVFWGS,0.721 ± 0.043
24,YLLDTLTAAREI,0.673 ± 0.016
25,PLPLPYCQASPV,0.658 ± 0.008
26,RWCRLGHRWRVV,0.563 ± 0.054

row,Sequence,protein stability index
1,EGGILHKKFTKS,0.696 ± 0.025
2,EDVPRGWACRGR,0.747 ± 0.024
3,AGCGGRCEAGDR,0.67 ± 0.011
4,DCVFLPCPRFFL,0.707 ± 0.03
5,LLLGSFFNKPTT,0.678 ± 0.035
6,YQSHFERSGVAR,0.674 ± 0.077
7,PLRPRGAAPPHP,0.6842 ± 0.0026
8,PSSPPSLRLPPL,0.701 ± 0.044
9,NSGSRGTRVVGL,0.705 ± 0.084
10,TLTSPFGSPTWD,0.638 ± 0.31
11,AIGSVWACVCCS,0.504 ± 0.095
12,LPACVVVRYCRF,0.637 ± 0.12
13,PPHPKPPPAPPP,0.527 ± 0.041
14,GKSTFWTELAII,0.648 ± 0.045
15,TCLWVCAWGFGG,0.716 ± 0.011
16,ETRIRGVMPRAY,0.659 ± 0.014
17,TPPFPSPLPPPS,0.753 ± 0.013
18,QSSWVGRWVRGG,0.659 ± 0.02
19,YPSTESPAGLAL,0.726 ± 0.025
20,PVRFGNCPSILS,0.7725 ± 0.0012
21,SSEKKKEDGGLG,0.687 ± 0.069
22,PNLARPSTPTTS,0.72 ± 0.023
23,YMGDFRPAFAVT,0.64 ± 0.046
24,PPHTRTACHRAP,0.7251 ± 0.0034
25,STTILIKKKNDK,0.684 ± 0.041
26,LPLHHYAHKFDL,0.746 ± 0.1

row,Sequence,protein stability index
1,THGMFVFSPPWF,0.785 ± 0.1
2,TTDKNEAHVYSR,0.6931 ± 0.00098
3,LFFSLLCSSFGS,0.708 ± 0.022
4,EKEGPDRGECGL,0.682 ± 0.0089
5,PSPALPVHPPLQ,0.687 ± 0.011
6,CQERKLKNQPMV,0.607 ± 0.054
7,SKGSVFGNMGYR,0.6741 ± 0.0063
8,VADTLVCRGPMA,0.718 ± 0.023
9,SASSESTFLRAR,0.641 ± 0.012
10,KIIGVRLKFDRS,0.761 ± 0.14
11,GDTRILKSRPEI,0.699 ± 0.0098
12,MGCDGSMAPRSL,0.6608 ± 0.0029
13,HLKPTPPLPPNT,0.67 ± 0.017
14,IGITWDVFLGLG,0.705 ± 0.03
15,PPPPSSLPPPPC,0.691 ± 0.012
16,RYLVLPDLCPIS,0.736 ± 0.1
17,AARRVARTTSFC,0.6728 ± 0.0019
18,CTRLSQTSMGRG,0.696 ± 0.043
19,PLPPSPPPPPSP,0.677 ± 0.019
20,RSPPPLPSPPSH,0.709 ± 0.035
21,TVTSTLKKHKRG,0.669 ± 0.034
22,TLTPPPSTSLPP,0.645 ± 0.067
23,PPPPPTPLPSTL,0.727 ± 0.038
24,RHTFMCQRRVGL,0.78 ± 0.084
25,WDEDGIFDAGGA,0.6 ± 0.041
26,SPLRPPSLPAPG,0.653 ± 0.015

row,Sequence,protein stability index
1,LTVPCSSSFPLL,0.647 ± 0.095
2,KTHKKKKKNKNF,0.525 ± 0.012
3,GGWGGKLVGRMG,0.708 ± 0.0083
4,PHPPPHPLFSRF,0.758 ± 0.02
5,AIRTPPTRTPPA,0.71 ± 0.049
6,LCPTGAPLYFSL,0.64 ± 0.093
7,VHIVTLGGVLSF,0.608 ± 0.0074
8,GMRAGLGRWRSM,0.737 ± 0.1
9,SNRSVININIRI,0.616 ± 0.058
10,HPTSNQATGRAN,0.692 ± 0.077
11,AALLQAGMPRTR,0.692 ± 0.013
12,SSLPVPGPFVND,0.69 ± 0.066
13,VGGEGVGVGGEV,0.616 ± 0.018
14,QGIKRPSSNKSK,0.731 ± 0.13
15,KKNTKKKQVNQE,0.747 ± 0.05
16,LWGGGGAGYWVG,0.732 ± 0.035
17,NKKIEDYDKNKN,0.6835 ± 0.00098
18,GGVVLTWVGENC,0.704 ± 0.061
19,PLSPLPPPPPPP,0.649 ± 0.04
20,GLYVDRTVEVGG,0.6228 ± 0.0035
21,NQKEIKYTLKYI,0.684 ± 0.018
22,GLRRSTRSRLVF,0.593 ± 0.12
23,ERRKQDERKRRV,0.7059 ± 0.00075
24,VVGRLERRLREQ,0.674 ± 0.017
25,KKIKKKKQTKRK,0.662 ± 0.039
26,HWCQKNKFKAIS,0.669 ± 0.033

row,Sequence,protein stability index
1,RQPPPRSPPSYL,0.75 ± 0.063
2,VEWLQLERDPLV,0.741 ± 0.033
3,VALEWGAVRVEG,0.569 ± 0.088
4,SVFTLLGSMCLE,0.664 ± 0.011
5,DDSHVLILKFNW,0.691 ± 0.045
6,PLPPPPALLFPP,0.733 ± 0.054
7,PFPPRLPSPATP,0.6914 ± 0.0037
8,LLVMRRHRFLRL,0.624 ± 0.051
9,HPPLAPQPPPPP,0.711 ± 0.033
10,GGSESRGSDRWE,0.633 ± 0.038
11,VSDMILSATFCM,0.643 ± 0.042
12,SAGGCSVMAGNG,0.709 ± 0.11
13,VGGMGAEGRGGK,0.721 ± 0.009
14,GGGGGVWGVGRV,0.66 ± 0.047
15,LSGTGTIIKARA,0.67 ± 0.14
16,ITRLSPPSSVRL,0.7 ± 0.039
17,VLQEFTFPKVGL,0.675 ± 0.015
18,KKEQKKKNKNDR,0.669 ± 0.025
19,PALCGGFFLVGV,0.636 ± 0.019
20,LISRQFPNHGWT,0.675 ± 0.044
21,GSWMSGLWQTPV,0.722 ± 0.065
22,VCLCFWSVGSWG,0.543 ± 0.011
23,LIWRQEDGGPMT,0.747 ± 0.01
24,SEVPCENSRRVV,0.667 ± 0.08
25,LPDSYAVVPPTS,0.642 ± 0.068
26,RINKKRETNQGK,0.685 ± 0.05

row,Sequence,protein stability index
1,WGWVLVGVGGLV,0.576 ± 0.091
2,RFIGVVTRLRRC,0.643 ± 0.042
3,GNGRGKKEGPKN,0.657 ± 0.01
4,SGLWAGVDGRSS,0.6855 ± 0.0021
5,PRLPSPPGAPPP,0.726 ± 0.011
6,LLLPIIPRKLDL,0.673 ± 0.022
7,KKKIINEKKKKD,0.70019 ± 0.00067
8,PPASPPAPPTFG,0.645 ± 0.021
9,FSCEVSFAGLIV,0.6 ± 0.012
10,ENRERVVENLRD,0.715 ± 0.04
11,LKMRIYEKNGKE,0.669 ± 0.049
12,YVTPALRPTSSR,0.728 ± 0.031
13,STLIARAQRGQA,0.639 ± 0.073
14,GYFSTFIKSSML,0.715 ± 0.029
15,PRLHRRPAYTFI,0.606 ± 0.022
16,ACGDRGGLCSEG,0.616 ± 0.066
17,PPSLCPPPSLLF,0.733 ± 0.013
18,SQGLALFLRPGY,0.628 ± 0.057
19,TTSDSVVFWTLH,0.719 ± 0.0074
20,VRRRKLAKCEVN,0.474 ± 0.058
21,GRRLSGWGAWVV,0.724 ± 0.063
22,RKGERRKKKKRR,0.677 ± 0.051
23,CRAGSVGGIRGR,0.693 ± 0.015
24,WSSRGAIDSARH,0.762 ± 0.019
25,MESAGVGRVVWR,0.654 ± 0.051
26,PPPPPLPPPPPT,0.696 ± 0.087

row,Sequence,protein stability index
1,SPPTSPAPLPPP,0.6502 ± 0.0032
2,SREKRKEEQTQK,0.717 ± 0.018
3,KKTGITTNIKRW,0.741 ± 0.23
4,FWSRGANGGVLV,0.6775 ± 0.0037
5,FFLRSPLFPCSH,0.72173 ± 0.00052
6,WGPPPPYSPFSL,0.713 ± 0.0089
7,LSLSPLHRSSFR,0.6954 ± 0.0056
8,KKSDTKKKGQNK,0.673 ± 0.048
9,WGRGLESVKGGG,0.727 ± 0.018
10,KFRLAGSVARSG,0.684 ± 0.013
11,SYPSGFPSPSHP,0.834 ± 0.062
12,IKNQNKKKKNKK,0.689 ± 0.05
13,PPPHAARSLFSL,0.733 ± 0.098
14,NKKKNKKIRQEK,0.685 ± 0.017
15,KYMPKDSLKNTI,0.622 ± 0.01
16,GGGGVACAGCTV,0.637 ± 0.056
17,PLSRYPSPSLPL,0.693 ± 0.0076
18,VGAWGCGMWVVG,0.645 ± 0.024
19,KVCVLSPDSCGL,0.741 ± 0.033
20,RGGPLSSGVVLV,0.714 ± 0.049
21,MGGVEMSNRIWE,0.663 ± 0.009
22,HSTPDSAAQEPG,0.673 ± 0.065
23,GEAVTGQRGATS,0.71 ± 0.025
24,SFLHSRAELPAG,0.604 ± 0.065
25,SGGCDNGRMRWV,0.682 ± 0.07
26,PLPLFGPRLSPP,0.875 ± 0.065

row,Sequence,protein stability index
1,PPPRPGFCLFLP,0.674 ± 0.05
2,VALPVGQKLRTR,0.633 ± 0.029
3,RNSTDENDCGRK,0.7062 ± 0.00038
4,PPPPRPPFPRAF,0.698 ± 0.0051
5,LSSPCAFTCPLL,0.7139 ± 0.0062
6,PPTVSRPPHLPT,0.69 ± 0.048
7,SPLTYTAPRCPR,0.82 ± 0.088
8,KHEKGEKNKIEK,0.664 ± 0.055
9,RALGKRFIQARD,0.727 ± 0.022
10,CSDGAFELRRDG,0.544 ± 0.078
11,SSHVPPDLPSLH,0.692 ± 0.031
12,PPVSHPSPFPLP,0.653 ± 0.0095
13,PRPLALPFCKLW,0.808 ± 0.14
14,PPLLPRPPPLSP,0.6677 ± 0.0037
15,GPVTPADASPHC,0.686 ± 0.034
16,DGKLNTASIEKV,0.684 ± 0.036
17,SKKRHSKNRKSV,0.71 ± 0.032
18,AWGWGGTGSAGA,0.71 ± 0.0097
19,SIYLLQRRQFDP,0.677 ± 0.048
20,SRIALLSLGAIL,0.707 ± 0.028
